Assay results published in patent US20150299328A1.

Target: HIR extracellular domain (ECD) (human) (UniProt P06213)
Experiment: ELISA, HIR ECD plated

CHO-derived HIRMAb-IDUA fusion protein (antibody)
EC50: 0.75 nM
